From US20200199241A1 (Chugai, published 2020) come the findings set out here.

This assay has as its target T1, human FcRn (soluble human FcRn complexed with β2-microglobulin) (human, UniProt P61769 21-119, limits assumed).
T1 construct: also called hFcRn
In words: SPR, pH 7.0.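 Also: antibodies captured on a Protein L sensor chip with human FcRn injected as analyte, KD calculated from fitted association and dissociation rate constants.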 In general terms: In SPR one partner is held on a chip, and binding of the other changes the refractive index at the surface.

Changes are numbered by the printed parent chain.

T1 sequence (chain, as listed by the source limits assumed, chain 1 of 2): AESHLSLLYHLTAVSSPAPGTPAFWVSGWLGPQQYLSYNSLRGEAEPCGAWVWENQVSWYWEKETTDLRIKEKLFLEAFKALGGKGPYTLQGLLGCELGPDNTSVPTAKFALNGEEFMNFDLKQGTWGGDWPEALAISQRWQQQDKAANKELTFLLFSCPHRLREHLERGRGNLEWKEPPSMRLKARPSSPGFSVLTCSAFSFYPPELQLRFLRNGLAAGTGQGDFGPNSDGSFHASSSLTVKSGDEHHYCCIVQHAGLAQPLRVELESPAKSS
T1 sequence (P61769 21-119 limits assumed, chain 2 of 2): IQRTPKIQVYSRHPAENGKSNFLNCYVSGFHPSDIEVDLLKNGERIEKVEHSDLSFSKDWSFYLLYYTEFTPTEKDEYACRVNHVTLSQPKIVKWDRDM

B1: IgG1-F695 (antibody)
heavy: QVQLQESGPGLVKPSETLSLTCAVSGHSISHDHAWSWVRQPPGEGLEWIGFISYSGITNYNPSLQGRVTISRDNSKNTLYLQMNSLRAEDTAVYYCARSLARTTAMDYWGEGTLVTVSSASTKGPSVFPLAPSSKSTSGGTAALGCLVKDYFPEPVTVSWNSGALTSGVHTFPAVLQSSGLYSLSSVVTVPSSSLGTQTYICNVNHKPSNTKVDKKVEPKSCDKTHTCPPCPAPELLGGPSVFLFPPKPKDTLYISRTPEVTCVVVDVSHEDPEVKFNWYVDGVEVHNAWTKPREEQYNSTYRVVSVLTPLHQDWLNGKEYKCKVSNKALPAPIEKTISKAKGQPREPQVYTLPPSRDELTKNQVSLTCLVKGFYPSDIAVEWESNGQPENNYKTTPPVLDSDGSFFLYSKLTVDKSRWQQGNVFSCSVMHEALHYHYTQKSLSLSP
light: not shown
notes: EU numbering; copies: 2 + 2
The Kd is a measure of binding affinity in units of concentration. Lower therefore signals higher affinity. Consider B1, for which the Kd was 40 nM.

B2: IgG1-F734 (antibody)
heavy: B1 heavy with G238D, W290K, P310V, L330E
light: not shown
notes: EU numbering; copies: 2 + 2
Turning to B2, the Kd is 310 nM.

B3: IgG1-F711 (antibody)
heavy: B1 heavy with S241K, W290K, T309Q, P310V, Q313A
light: not shown
notes: EU numbering; copies: 2 + 2
Consider B3, for which the Kd worked out at 65 nM.

B4: IgG1-F710 (antibody)
heavy: B1 heavy with P240D, N288E, W290K, T309Q, P310V, Q313A, M430I
light: not shown
notes: EU numbering; copies: 2 + 2
For B4, binding was characterised by a dissociation constant (Kd) of 15 nM.

B5: IgG1-F741 (antibody)
heavy: B1 heavy with P240D, T252A, W290K, P310V
light: not shown
notes: EU numbering; copies: 2 + 2
In turn, B5 had a Kd of 310 nM.

B6: IgG1-F707 (antibody)
heavy: B1 heavy with N288E, W290K, T309Q, Q313A
light: not shown
notes: EU numbering; copies: 2 + 2
B6 returned a Kd of 5.9 nM.

B7: IgG1-F705 (antibody)
heavy: B1 heavy with N288E, W290K, M430I
light: not shown
notes: EU numbering; copies: 2 + 2
With B7, the Kd is 7.1 nM.

B8: IgG1-F739 (antibody)
heavy: B1 heavy with W290K, T309P, P310V, Q313A
light: not shown
notes: EU numbering; copies: 2 + 2
On to B8, for which the Kd was found to be 220 nM.

B9: IgG1-F738 (antibody)
heavy: B1 heavy with P240D, W290K, T309P, P310V
light: not shown
notes: EU numbering; copies: 2 + 2
For B9, the Kd was 350 nM.

B10: IgG1-F700 (antibody)
heavy: B1 heavy with W290K, L330E
light: not shown
notes: EU numbering; copies: 2 + 2
B10 came in with a Kd of 52 nM.

B11: IgG1-F713 (antibody)
heavy: B1 heavy with P240D, N288E, W290K, T309Q, P310V, Q313A
light: not shown
notes: EU numbering; copies: 2 + 2
B11: the Kd stood at 20 nM.

B12: IgG1-F733 (antibody)
heavy: B1 heavy with W290K, P310V, L330E
light: not shown
notes: EU numbering; copies: 2 + 2
The molecule B12 had a Kd of 320 nM.

B13: IgG1-F737 (antibody)
heavy: B1 heavy with S269L, W290K, P310V, L330E
light: not shown
notes: EU numbering; copies: 2 + 2
Molecule B13 returned a Kd of 310 nM.

B14: IgG1-F731 (antibody)
heavy: B1 heavy with Y254M, W290K, T309A, P310V, Q313H
light: not shown
notes: EU numbering; copies: 2 + 2
In turn, B14 came in with a Kd of 850 nM.

B15: IgG1-F740 (antibody)
heavy: B1 heavy with W290K, T309P, P310V, Q313H
light: not shown
notes: EU numbering; copies: 2 + 2
For B15, binding was characterised by a dissociation constant (Kd) of 290 nM.

B16: IgG1-F717 (antibody)
heavy: B1 heavy with P240D, W290K, P310V, N327I
light: not shown
notes: EU numbering; copies: 2 + 2
B16 yielded a Kd of 260 nM.

B17: IgG1-F724 (antibody)
heavy: B1 heavy with P240D, W290K, P310V, L330E
light: not shown
notes: EU numbering; copies: 2 + 2
Turning to B17, binding was put at a Kd of 250 nM.

B18: IgG1-F697 (antibody)
heavy: B1 heavy with S241K, W290K, N327G
light: not shown
notes: EU numbering; copies: 2 + 2
In the case of B18, the Kd is 31 nM.

B19: IgG1-F718 (antibody)
heavy: B1 heavy with P240D, W290K, Q297M, P310V
light: not shown
notes: EU numbering; copies: 2 + 2
On to B19, for which binding was characterised by a dissociation constant (Kd) of 280 nM.

B20: IgG1-F696 (antibody)
heavy: B1 heavy with W290Y
light: not shown
notes: EU numbering; copies: 2 + 2
Regarding B20, the Kd is 44 nM.

B21: IgG1-F732 (antibody)
heavy: B1 heavy with Y254M, W290K, T309Q, P310V, Q313H
light: not shown
notes: EU numbering; copies: 2 + 2
In turn, B21 yielded a Kd of 680 nM.

B22: IgG1-F708 (antibody)
heavy: B1 heavy with N288E, W290K, T309Q, Q313A, M430I
light: not shown
notes: EU numbering; copies: 2 + 2
As to B22, the Kd is 4.1 nM.

B23: IgG1-F715 (antibody)
heavy: B1 heavy with P240D, W290K, P310V, N327M
light: not shown
notes: EU numbering; copies: 2 + 2
On to B23, for which the Kd was 230 nM.

B24: IgG1-F712 (antibody)
heavy: B1 heavy with P240D, W290K, T309Q, P310V, Q313A
light: not shown
notes: EU numbering; copies: 2 + 2
Regarding B24, binding was put at a Kd of 60 nM.

B25: IgG1-F726 (antibody)
heavy: B1 heavy with L237K, P240K, S241K, W290K
light: not shown
notes: EU numbering; copies: 2 + 2
Take B25: the affinity, expressed as Kd, was 37 nM.

B26: IgG1-F729 (antibody)
heavy: B1 heavy with Y254M, W290K, T309A, P310V, Q313A
light: not shown
notes: EU numbering; copies: 2 + 2
Take B26: the Kd worked out at 920 nM.

B27: IgG1-F716 (antibody)
heavy: B1 heavy with P240D, W290K, P310V, N327L
light: not shown
notes: EU numbering; copies: 2 + 2
Molecule B27 came in with a Kd of 270 nM.

B28: IgG1-F714 (antibody)
heavy: B1 heavy with P240D, W290K, P310V, N327S
light: not shown
notes: EU numbering; copies: 2 + 2
In turn, B28 gave a Kd of 230 nM.

B29: IgG1-F719 (antibody)
heavy: B1 heavy with P240D, W290K, P310V, N327G
light: not shown
notes: EU numbering; copies: 2 + 2
Consider B29, for which binding was put at a Kd of 74 nM.

B30: IgG1-F721 (antibody)
heavy: B1 heavy with W290K, T309Q, Q313A, M430I
light: not shown
notes: EU numbering; copies: 2 + 2
In the case of B30, the affinity, expressed as Kd, was 15 nM.

B31: IgG1-F706 (antibody)
heavy: B1 heavy with N288E, W290K, T309Q, P310V, Q313A, M430I
light: not shown
notes: EU numbering; copies: 2 + 2
In turn, B31 came in with a Kd of 18 nM.

B32: IgG1-F723 (antibody)
heavy: B1 heavy with P240D, W290K, P310V, L330D
light: not shown
notes: EU numbering; copies: 2 + 2
With B32, binding was characterised by a dissociation constant (Kd) of 280 nM.

B33: IgG1-F730 (antibody)
heavy: B1 heavy with Y254M, W290K, T309Q, P310V, Q313A
light: not shown
notes: EU numbering; copies: 2 + 2
Molecule B33 came in with a Kd of 600 nM.

B34: IgG1-F709 (antibody)
heavy: B1 heavy with S241K, N288E, W290K, T309Q, P310V, Q313A, M430I
light: not shown
notes: EU numbering; copies: 2 + 2
The molecule B34 yielded a Kd of 20 nM.

B35: IgG1-F698 (antibody)
heavy: B1 heavy with N288E, W290K, T309Q, P310V, Q313A
light: not shown
notes: EU numbering; copies: 2 + 2
For the molecule B35, the dissociation constant (Kd) is 22 nM.

B36: IgG1-F699 (antibody)
heavy: B1 heavy with S241K, N288E, W290K, T309Q, P310V, Q313A
light: not shown
notes: EU numbering; copies: 2 + 2
As to B36, binding was put at a Kd of 23 nM.

B37: IgG1-F720 (antibody)
heavy: B1 heavy with W290K, T309Q, Q313A
light: not shown
notes: EU numbering; copies: 2 + 2
The molecule B37 had a dissociation constant (Kd) of 24 nM.

B38: IgG1-F725 (antibody)
heavy: B1 heavy with L237K, G239R, S241K, W290K
light: not shown
notes: EU numbering; copies: 2 + 2
In turn, B38 showed a Kd of 42 nM.

B39: IgG1-F736 (antibody)
heavy: B1 heavy with S269M, W290K, P310V, L330E
light: not shown
notes: EU numbering; copies: 2 + 2
On to B39, for which the Kd was determined as 310 nM.
